From the supplement of paper PMC10567573

B1: ADAMTS4 (parent)
chain: HVDPEEPWSPCSARFITDFLDNGY

Variants of: B1
Assay: protein stability index of a GFP-peptide fusion (GPS, HEK-293T) (PSI 1-6); higher = more stable
Details: c terminus: a fixed tail appended
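Also: lentivirally expressed fusions sorted by FACS into six bins by GFP to DsRed ratio, PSI derived from sequencing read proportions per bin multiplied by bin number.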

Protein stability index of substitutions, site by site:
D21: N 1.84 | M 1.77 | C 1.95 | G 1.76 | A 1.35 | K 1.88 | S 1.73 | V 2.2 | I 2.69 | E 1.71 | P 1.96 | L 1.6 | F 2.12 | R 1.87 | H 1.43 | T 1.96 | Q 2.21 | W 2.42
I16: W 1.55 | N 2.19 | T 1.74 | S 1.98 | D 1.94 | R 2.84 | M 1.69 | V 1.97 | H 1.72 | Q 2.07 | C 1.59 | E 2.33 | Y 1.89 | P 1.81 | K 1.73 | G 2.27 | L 1.67 | F 1.63 | A 2.13
A13: N 2.33 | H 1.85 | I 2.19 | T 1.79 | S 1.89 | V 2.54 | L 1.88 | G 1.5 | Q 1.97 | R 1.87 | Y 1.67 | K 2.08 | F 1.92 | M 2.18 | W 1.95 | P 1.89
L20: D 2.22 | A 1.96 | M 1.82 | I 1.78 | V 1.92 | H 1.92 | N 2.39 | G 2.31 | Y 2.14 | W 1.59 | Q 2.28 | R 2.3 | K 1.93 | P 2.15 | E 2.24 | F 2.04 | C 1.52 | S 1.82 | T 2.13
T17: W 1.86 | V 1.83 | Q 1.77 | C 2.04 | E 1.57 | D 1.81 | H 2.05 | G 1.71 | N 1.62 | A 1.87 | K 1.71 | M 2.38 | S 1.88 | L 2.39 | I 2.13 | Y 1.83 | F 1.41 | R 2.03 | P 1.88
F19: C 1.5 | K 2.16 | I 1.8 | W 1.93 | D 2.54 | P 3 | L 1.64 | R 1.65 | G 2.06 | V 1.78 | Y 1.58 | E 1.96 | N 2.05 | M 1.89 | A 1.86 | T 2.02 | Q 2.21 | H 2.29 | S 2.17
R14: A 2.05 | F 2.27 | E 2.58 | M 1.51 | C 1.66 | L 2.13 | Y 1.71 | N 1.86 | K 2.32 | H 1.84 | I 2.28 | W 1.58 | G 2.15 | D 2.45 | Q 2 | V 1.56 | S 2.02 | P 1.87 | T 1.83
F15: W 1.64 | K 2.07 | V 1.91 | P 2.08 | I 1.71 | Q 1.77 | A 1.94 | Y 2.01 | M 1.91 | R 2.25 | L 1.96 | C 1.97 | G 2.71 | D 2.47 | N 2.04 | E 2.65 | H 1.98 | S 1.88 | T 1.64
D18: W 1.53 | T 1.65 | P 2.17 | G 1.59 | H 1.89 | L 2.6 | N 1.58 | R 1.13 | C 2.73 | S 1.61 | I 2.73 | E 1.99 | A 2.2 | K 2.02 | M 2.9 | V 2.03 | F 1.6 | Q 1.67 | Y 1.94
